Where “and” joins values, the source holds several entries; their conditions need not be identical. Equal entries are not always repeated.
What was measured:
[1] = target: T1, MSNW11, recombinant soluble (shed) MSLN lacking the C-terminal 7 AAs (human, UniProt Q13421 296-591); assay: SPR
T1 construct: domain: soluble MSLN lacking the C-terminal 7 AAs; also called MSNW11.002; soluble MSLN

[2] = target: human MSLN on the cell surface (human, UniProt Q13421 296-598); assay: cell-based or functional assay
[3] = target: T2, recombinant CD3 (UniProt P07766 23-126); assay: SPR, recombinant CD3
T2 construct: also called CD3 (SPR)

[4] = target: T3, mouse MSLN (mouse, UniProt Q61468 298-600, limits assumed); assay: not described (study MSLN-00922)
T3 construct: also called corresponding mouse antigen
T3 sequence (looked up): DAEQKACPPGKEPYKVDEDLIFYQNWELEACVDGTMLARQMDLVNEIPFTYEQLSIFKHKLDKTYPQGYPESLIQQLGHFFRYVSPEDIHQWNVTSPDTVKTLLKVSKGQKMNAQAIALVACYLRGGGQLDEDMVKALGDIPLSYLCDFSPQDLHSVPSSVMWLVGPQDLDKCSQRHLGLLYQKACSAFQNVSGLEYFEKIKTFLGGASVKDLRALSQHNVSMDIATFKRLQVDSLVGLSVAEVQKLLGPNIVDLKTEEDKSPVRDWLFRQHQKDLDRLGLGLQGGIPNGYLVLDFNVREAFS

[5] = target: T4, mouse CD3 (mouse, UniProt P22646 22-108); assay: not described (study MSLN-00922)
T4 construct: also called corresponding mouse antigen
T4 sequence (looked up): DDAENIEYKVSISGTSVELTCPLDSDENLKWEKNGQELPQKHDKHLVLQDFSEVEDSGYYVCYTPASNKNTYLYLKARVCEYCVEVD

[6] = target: T5, MSNW10, recombinant full length human MSLN (human, UniProt Q13421 296-598); assay: SPR after forced degradation
T5 construct: also called MSNW10.002; FL-MSLN

[7] = target: T2, recombinant CD3; assay: SPR after forced degradation
[8] = target: T6, CD3 epsilon on human T-cells (human, UniProt P07766 23-207); assay: 1-hour 37 °C T-cell binding assay
T6 construct: part of the TCR-CD3 complex on T cells; also called CD3 on T cells

[9] = target: T7, MSLN with Met593Val on cells homozygous for SNP rs1135210 (SNP G|G) (human, UniProt Q13421 296-598); assay: binding to homozygous SNP-positive cells
T7 construct: also called homozygous SNP-positive cells; BxPC3, NCI-H322

[10] = target: T5, MSNW10, recombinant full length human …; assay: SPR, recombinant full-length human MSLN
[11] = target: T5, MSNW10, recombinant full length human …; assay: SPR after forced degradation; after pH 5 (Iso) forced degradation
[12] = target: T2, recombinant CD3; assay: as above

T2 sequence (P07766 23-126): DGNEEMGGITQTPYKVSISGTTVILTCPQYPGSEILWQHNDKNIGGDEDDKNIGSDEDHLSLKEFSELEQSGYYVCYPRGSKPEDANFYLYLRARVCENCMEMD
Sequence of human MSLN on the cell surface (Q13421 other isoform, or with tags, fused parts or gaps limits assumed): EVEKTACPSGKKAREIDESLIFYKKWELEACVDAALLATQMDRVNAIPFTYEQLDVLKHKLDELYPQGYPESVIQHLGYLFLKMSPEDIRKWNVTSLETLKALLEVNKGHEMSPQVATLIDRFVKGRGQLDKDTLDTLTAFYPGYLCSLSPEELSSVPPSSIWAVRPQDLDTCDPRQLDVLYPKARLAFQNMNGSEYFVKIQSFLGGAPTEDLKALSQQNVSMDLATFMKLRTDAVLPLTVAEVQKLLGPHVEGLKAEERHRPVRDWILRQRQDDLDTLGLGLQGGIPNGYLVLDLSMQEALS
T1 sequence (Q13421 other isoform, or with tags, fused parts or gaps limits assumed): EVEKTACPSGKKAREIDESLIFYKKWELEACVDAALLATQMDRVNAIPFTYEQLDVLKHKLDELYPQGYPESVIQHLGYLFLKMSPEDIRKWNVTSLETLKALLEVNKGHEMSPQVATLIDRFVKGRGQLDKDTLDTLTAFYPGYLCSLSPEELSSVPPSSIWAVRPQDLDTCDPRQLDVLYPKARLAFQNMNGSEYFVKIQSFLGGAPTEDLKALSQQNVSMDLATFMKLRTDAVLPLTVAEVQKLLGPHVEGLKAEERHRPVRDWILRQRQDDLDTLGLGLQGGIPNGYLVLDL
T6 sequence (P07766 23-207 limits assumed): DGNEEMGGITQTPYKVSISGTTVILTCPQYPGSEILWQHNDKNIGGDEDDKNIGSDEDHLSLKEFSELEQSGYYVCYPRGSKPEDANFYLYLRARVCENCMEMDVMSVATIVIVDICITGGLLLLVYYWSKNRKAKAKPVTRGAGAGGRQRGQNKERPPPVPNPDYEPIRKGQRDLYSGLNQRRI
T7 sequence (Q13421 other isoform, or with tags, fused parts or gaps M593V M593V limits assumed): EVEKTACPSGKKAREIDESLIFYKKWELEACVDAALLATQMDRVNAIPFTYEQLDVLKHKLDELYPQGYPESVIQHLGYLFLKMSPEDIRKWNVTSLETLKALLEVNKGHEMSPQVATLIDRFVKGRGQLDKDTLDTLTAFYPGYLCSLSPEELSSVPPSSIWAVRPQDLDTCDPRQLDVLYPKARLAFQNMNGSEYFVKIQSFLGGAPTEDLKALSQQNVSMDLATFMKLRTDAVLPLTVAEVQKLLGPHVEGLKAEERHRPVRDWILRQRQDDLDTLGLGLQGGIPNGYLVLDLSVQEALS

B1: MNC3B304 (bispecific antibody, human IgG1, kappa, L234A L235A)
scFv: DIQMTQSPSSLSASVGDRVTITCRARQSIGTAIHWYQQKPGKAPKLLIKYASESISGVPSRFSGSGSGTDFTLTISSLQPEDFATYYCQQSGSWPYTFGQGTKLEIKGGSEGKSSGSGSESKSTGGSEVQLVESGGGLVKPGGSLRLSCAASGFTFSRYNMNWVRQAPGKGLEWVSSISTSSNYIYYADSVKGRFTFSRDNAKNSLDLQMSGLRAEDTAIYYCTRGWGPFDYWGQGTLVTVSSEPKSSDKTHTCPPCPAPEAAGGPSVFLFPPKPKDTLMISRTPEVTCVVVSVSHEDPEVKFNWYVDGVEVHNAKTKPREEQYNSTYRVVSVLTVLHQDWLNGKEYKCKVSNKALPAPIEKTISKAKGQPREPQVYTLPPSREEMTKNQVSLWCLVKGFYPSDIAVEWESNGQPENNYKTTPPVLDSDGSFFLYSKLTVDKSRWQQGNVFSCSVMHEALHNHYTQKSLSLSPGK
heavy: QVQLVESGPGQVKPSQTLSLTCAISGDSVSSNSAAWNWIRQSPSRGLEWLGRTYYRSKWYNDYAVSVKSRITINPDTSKNQFSLQLNSVTPEDTAVYYCARRDYSSGGFDYWGQGTTVTVSSASTKGPSVFPLAPSSKSTSGGTAALGCLVKDYFPEPVTVSWNSGALTSGVHTFPAVLQSSGLYSLSSVVTVPSSSLGTQTYICNVNHKPSNTKVDKKVEPKSCDKTHTCPPCPAPEAAGGPSVFLFPPKPKDTLMISRTPEVTCVVVSVSHEDPEVKFNWYVDGVEVHNAKTKPREEQYNSTYRVVSVLTVLHQDWLNGKEYKCKVSNKALPAPIEKTISKAKGQPREPQVYTLPPSREEMTKNQVSLSCAVKGFYPSDIAVEWESNGQPENNYKTTPPVLDSDGSFFLVSKLTVDKSRWQQGNVFSCSVMHEALHNRFTQKSLSLSPGK
light: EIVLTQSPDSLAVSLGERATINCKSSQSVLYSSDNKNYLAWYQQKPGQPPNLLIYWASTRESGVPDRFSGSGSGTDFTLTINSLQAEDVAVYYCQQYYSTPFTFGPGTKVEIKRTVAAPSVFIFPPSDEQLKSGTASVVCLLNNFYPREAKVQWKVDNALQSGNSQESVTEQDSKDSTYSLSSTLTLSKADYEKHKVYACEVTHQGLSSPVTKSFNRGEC
notes: also called mrMSLN-MSNB457 x W245LH, KiH; CD3W245 LH containing Bipod
[1]
  binding result: no binding
[2]
  cytotoxicity EC50, OVCAR-8 K1/C8 MSLN medium cells, Incucyte 72 hours, 1:1 E:T: 1.2 nM
  cytotoxicity EC50, OVCAR-8 MSLN high cells, Incucyte 72 hours, 1:1 E:T: 0.24 nM
  cytotoxicity EC50, SK-OV-3 MSLN low cells, Incucyte 72 hours, 1:1 E:T: 103 nM
[3]
  Kd: 0.12 nM
[4]
  binding result: no binding
[5]
  binding result: no binding
[6]
  Kd: 5.22 nM and 4.92 nM and 4.76 nM and 5.03 nM
[7]
  Kd: 0.13 nM and 0.17 nM and 0.14 nM
[8]
  EC50: > 100 nM
[9]
  binding result: no binding
[10]
  Kd: 4.64 nM
[11]
  Kd: 4.7 nM
[12]
  Kd: 0.13 nM
